In patent publication US6620616B1, “Nucleic acids encoding nitric oxide synthase variants” (The Cleveland Clinic Foundation, priority 2000, dated 2003):

Tests used:
[1] = NO synthesis from Arg (initial rate); assay type: biochemical; details: for NO synthesis from Arg, turn over number (kcat): 25° C.
Description: (§1) The initial rate of NO synthesis, NADPH oxidation, or cytochrome c reduction by wild type and mutants was quantitated at 25° C. as described in Abu-Soud et al. (1997) J. Biol. Chem 272: 10769-10772. H2O2-dependent nNOS oxidation of NOHA to nitrite was assayed in 96-well microplates at 30° C. The assay volume was 100 μl and contained 40 mM EPPS, pH 7.6, 250 nM nNOS or mutants, 1 mM NOHA, 1 mM DTT, 25 units/ml superoxide dismutase 0.5 mM EDTA, and 4 μM H4B. Reactions were initiated by adding 30 mM H2O2 and stopped after 10 min by adding 1300 units of catalase. Nitrite was detected at 550 nm using the Griess reagent (100 μL) and quantitated based on nitrite standards.

[2] = NO synthesis from NOHA (initial rate); assay type: biochemical; details: 25° C.
Description: as §1

[3] = NADPH oxidation; assay type: biochemical; details: 25° C.
Description: as §1

[4] = tested on: cytochrome c; experiment: Cytochrome c reduction; assay type: biochemical; details: 25° C.
Description: as §1

[5] = Ferrous-nitrosyl complex formation during aerobic steady state; assay type: biochemical; details: air-saturated buffer, 15° C., 1 mM Arg, 20 μM H4B
Description: NO down-regulates the rate of NO synthesis and associated electron flux by binding to the nNOS heme. We therefore investigated if NO binding to the heme was altered by the Trp-409 mutations during aerobic steady-state catalysis. In this study, 0.6 μM nNOS was diluted is an air-saturated 40 mM EPPS buffer, pH 7.6, containing 0.9 mM EDTA, 3 μM CaM, 200 μM DTT, 20 μM H4B, 80 μM NADPH, and 1 mM Arg; final volume 1 ml. Reactions were started by adding 1.2 mM Ca^2+ and monitored by wavelength scanning at 15° C.

[6] = NO synthesis versus O2 concentration (oxyhemoglobin assay); assay type: biochemical; details: O2 levels ranging from 0 to 230 mm O2, 25° C., FIG. 3
Description: The reaction was started by adding 0.2 mM NADPH. Rates of synthesis were quantified as follows: the initial rate of NO synthesis by nNOS was quantitated at 25° C. using oxyhemoglobin assay for NO, according to the method found in Abu-Soud and Stuehr (1993) Proc. Natl. Acad. Sci. U.S.A. 90:10769-10772. The NO mediated conversion of oxyhemoglobin to met-hemoglobin was monitored over time as an absorbence increase at 401 nm, and quantitated using the extinction coefficient of 38 mM^−1 cm^−1. Quantitation was done with a Hitachi U2000 spectrophotometer. O2 concentration measurement in each reaction was calculated based on the O2 concentration of a saturated buffer at 25° C. (approximately 0.26 mM) and the mixing ratios of this solution with an anaerobic buffer that contained no oxygen. […] The difference in the enzymatic activity of the NOS variant and wild-type NOS is most pronounced at low concentrations of O2, i.e., concentrations ranging from 0 to 50 μM.

[7] = Ferric- and ferrous-NO complex formation under anaerobic conditions; assay type: binding; details: Arg and H4B present
Description: Given the above, we investigated if either mutant could form stable ferric or ferrous NO complexes with authentic NO under an anaerobic atmosphere in the presence of Arg and H4B, as occurs for wild-type nNOS. Concentrated small amounts of nNOS or mutants were placed into an anaerobic cuvette with 4 μM H4B, 1 mM Arg, and 200 μM DTT and made anaerobic by repeated cycles of evacuation and equilibration with deoxygenated argon gas. A 40 mM EPPS buffer containing 4 μM H4B, 1 mM Arg, and 200 μM DTT was separately made anaerobic, and 1 ml of this solution was transferred to the cuvette. NO gas was added to the head space and dissolved by mixing. Dithionite solution was then added in some cases.

[8] = CaM-bound, +H4B, NAME (nitro-L-arginine methyl ester)

Substance	faster rate of NO synthesis from Arg compared with the wild type ([1]; +CaM) [fold]	NO synthesis from Arg, turn over number (kcat) ([1]; +CaM)	NO synthesis from Arg, turn over number (kcat) ([1]; −CaM)	NO synthesis from NOHA, turn over number (kcat) ([2]; +CaM)	NO synthesis from NOHA, turn over number (kcat) ([2]; −CaM)	NADPH oxidation, turn over number (kcat) ([3]; +CaM)	NADPH oxidation, turn over number (kcat) ([3]; CaM-bound, +H4B, Arg)	NADPH oxidation, turn over number (kcat) [3, 8]	NADPH oxidation, turn over number (kcat) ([3]; CaM-bound, +H4B, agmatine)	NADPH oxidation, turn over number (kcat) ([3]; CaM-bound, +H4B, −Arg)	NADPH oxidation, turn over number (kcat) ([3]; CaM-bound, −H4B, −Arg)	NADPH oxidation, turn over number (kcat) ([3]; −CaM)	Cytochrome c reduction, turn over number (kcat) ([4]; +CaM)	Cytochrome c reduction, turn over number (kcat) ([4]; −CaM)	6-coordinate ferrous-NO complex accumulation (absorbance buildup at 436 nm) during steady-state NO synthesis [5]	rate of NO production relative to wild-type nNOS [6]	ferric NO complex formation with authentic NO [7]	ferrous-NO complex after dithionite reduction ([7]; dithionite added)
W409Y: rat nNOS variant with tyrosine (Y) at position 409 in place of tryptophan, His6-tagged, expressed in E. coli	1.8	155 mol of product formed/mol of protein/min	0 mol of product formed/mol of protein/min	180 mol of product formed/mol of protein/min	0 mol of product formed/mol of protein/min	237 mol of product formed/mol of protein/min	250 + 20 min^−1	25 + 4 min^−1	170 + 10 min^−1	124 + 4 min^−1	74 + 8 min^−1	11.2 mol of product formed/mol of protein/min	5546 mol of product formed/mol of protein/min	280 mol of product formed/mol of protein/min	no	faster than the wild-type nNOS protein	–	–
W409F: rat nNOS variant with phenylalanine (F) at position 409 in place of tryptophan, His6-tagged, expressed in E. coli	3	286 mol of product formed/mol of protein/min	0 mol of product formed/mol of protein/min	453 mol of product formed/mol of protein/min	0 mol of product formed/mol of protein/min	445 mol of product formed/mol of protein/min	480 + 20 min^−1	16 + 3 min^−1	180 + 10 min^−1	189 + 15 min^−1	105 + 10 min^−1	5.6 mol of product formed/mol of protein/min	5000 mol of product formed/mol of protein/min	230 mol of product formed/mol of protein/min	small	faster than the wild-type nNOS protein	–	–
nNOS: wild-type rat neuronal nitric oxide synthase, His6-tagged, expressed in E. coli; non-variant comparator [reference compound]	–	96 mol of product formed/mol of protein/min	0 mol of product formed/mol of protein/min	115 mol of product formed/mol of protein/min	0 mol of product formed/mol of protein/min	170 mol of product formed/mol of protein/min	160 + 12 min^−1	22 + 4 min^−1	250 + 20 min^−1	500 + 25 min^−1	290 + 25 min^−1	11.2 mol of product formed/mol of protein/min	7000 mol of product formed/mol of protein/min	500 mol of product formed/mol of protein/min	a significant percentage accumulated as the 6-coordinate ferrous-NO complex	–	formed stable 6-coordinate ferric NO complexes	stable 6-coordinate ferrous-NO complex
